Assay [1] addresses purified human properdin (human) (UniProt P27918). Nature of the assay: cell-based or functional assay.
The target is the same in assay [2]. Nature of the assay: ELISA, preformed C3bBbP on C3b-coated plates incubated with increasing IRAC II; bound properdin detected with anti-properdin antibody. In general terms: In an ELISA, binding on a coated surface is turned into a signal by an enzyme label.
Assay [3] shares this target. Nature of the assay: ELISA, preformed C3bBbP on C3b-coated plates incubated with increasing IxAC-B1; bound properdin detected with anti-properdin antibody.

purified human properdin (human), sequence (P27918 28-469 limits assumed): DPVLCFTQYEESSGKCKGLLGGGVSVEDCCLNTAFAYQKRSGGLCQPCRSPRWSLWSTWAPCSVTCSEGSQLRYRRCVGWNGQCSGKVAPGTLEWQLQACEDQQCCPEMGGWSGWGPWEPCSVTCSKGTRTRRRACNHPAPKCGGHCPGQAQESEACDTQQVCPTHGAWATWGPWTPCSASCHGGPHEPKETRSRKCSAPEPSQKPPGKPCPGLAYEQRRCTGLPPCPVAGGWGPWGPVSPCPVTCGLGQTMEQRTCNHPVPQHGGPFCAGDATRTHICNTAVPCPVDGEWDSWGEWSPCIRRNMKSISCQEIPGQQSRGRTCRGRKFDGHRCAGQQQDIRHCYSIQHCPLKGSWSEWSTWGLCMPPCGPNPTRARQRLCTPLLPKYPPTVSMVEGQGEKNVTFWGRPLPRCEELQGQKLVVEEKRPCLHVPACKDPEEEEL

In assay [1], “recombinant IRAC I-V5His (Ixodes ricinus anticomplement protein I)” showed an inhibition of alternative pathway haemolysis of rabbit red blood cells by human serum of 85%.
In turn, “recombinant IRAC II-V5His (Ixodes ricinus anticomplement protein II)” had an inhibition of alternative pathway haemolysis of rabbit red blood cells by human serum in assay [1] of 85%. In assay [2], this substance showed a percent of pre-bound properdin displaced of 50%.
In assay [1], recombinant IxAC-B1-V5His returned an inhibition of alternative pathway haemolysis of rabbit red blood cells by human serum of 85%. The substance further gave a percent of pre-bound properdin displaced in assay [3] of 50%.
In assay [1], recombinant IxAC-B2-V5His came in with an inhibition of alternative pathway haemolysis of rabbit red blood cells by human serum of 85%.
The same measure, in the same setting: in the case of recombinant IxAC-B3-V5His it was 85%.
In the case of recombinant IxAC-B4-V5His, in assay [1], the inhibition of alternative pathway haemolysis of rabbit red blood cells by human serum was found to be 85%.
Same read-out and setting: in the case of recombinant IxAC-B5-V5His it was 85%.

The record behind these values is patent publication US20110008351A1.
